What is called Kd is the concentration at which binding is half-saturated. The low end stands for a tighter complex, the high end for a looser complex.

In test [1] the target is T1, TNKS1-Arc1 (183–335aa) (human, UniProt O95271 183-335).
T1 construct: human Tankyrase-1 (TNKS1), ARC (Ankyrin Repeat Cluster) domain 1, residues 183-335; pET24b plasmid; also called Arc I; ArcI; source: E. coli BL21 (DE3), purified (Ni-NTA Agarose); not shown: His6, C-terminal, kept
T1 sequence (looked up): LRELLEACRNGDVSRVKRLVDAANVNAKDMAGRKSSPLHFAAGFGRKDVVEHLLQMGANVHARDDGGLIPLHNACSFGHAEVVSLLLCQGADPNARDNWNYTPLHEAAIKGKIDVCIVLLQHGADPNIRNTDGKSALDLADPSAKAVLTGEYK
The test is described as follows: pull-down; 150 μg GST fusion protein on Glutathione-Sepharose 4B beads; 0.1 μM prey protein; 25 mM Hepes pH 7.4, 150 mM NaOAc, 0.2% Triton, 1 mM DTT; 4 °C, 2 h; western blot. The following applies: both partners purified. For orientation: In western blotting, separated proteins are transferred to a membrane and probed.

The target of test [2] is T1, TNKS1-Arc1 (183–335aa). The test is described as follows: BLI; Octet RED96; GST fusion proteins loaded on GST biosensors at 10 ug/ml; TNKS1-Arc1 as analyte (0.16-4.56 μM); 25 °C; 25 mM Hepes pH 7.4, 150 mM NaOAc, 0.2% Triton, 1 mM DTT; steady-state fit. The following applies: both partners purified.

Positions count from the first letter of the chain named. Names may count otherwise.

B1: GST-Golgin45 N70 S49D (domain or fragment, human, UniProt Q9H2G9 1-70, looked up)
chain: MTTKNLETKVTVTSSPIRGAGDGMETEEPPKSVEVTSGVQSRKHHSLQDPWKKAVPSESPGVLQLGKMLT
notes: Golgin45 (BLZF1), N-terminal residues 1-70, phospho-mimicking S49D in the Cdc2 consensus 49SPWK52; also called GST-Golgin45 S49D mutant; source: E. coli BL21 (DE3), purified (Glutathione HiCap Matrix)
Consider B1, for which, in test [1], the binding result is “binds”.

B2: GST-Golgin45 N70 S15D (domain or fragment, human, UniProt Q9H2G9 1-70, looked up)
chain: B1 chain with S15D, D49S
notes: Golgin45 (BLZF1), N-terminal residues 1-70, phospho-mimicking S15D in the Cdc2 consensus 15SPIR18; also called S15D mutated GST-Golgin45; Golgin45 S15D mutant; source: E. coli BL21 (DE3), purified (Glutathione HiCap Matrix)
In test [2], B2 came in with a Kd of 2780 ± 80 nM.

B3: GST-Golgin45 N-terminal domain (amino acid 1–70) (domain or fragment, human, UniProt Q9H2G9 1-70, looked up)
chain: B1 chain with D49S
notes: Golgin45 (BLZF1), N-terminal residues 1-70; pGEX-6p-1 plasmid; also called GST-Golgin45 N70 wt; Golgin45 N70 WT; source: E. coli BL21 (DE3), purified (Glutathione HiCap Matrix)
Molecule B3 gave a Kd in test [2] of roughly 1460 nM.

The values above are taken from paper PMC8651787, “Tankyrase-1-mediated degradation of Golgin45 regulates glycosyltransferase trafficking and protein glycosylation in Rab2-GTP-dependent manner” (Communications Biology, 2021).
